Measurements reported in FireProtDB (doi:10.1093/jb/mvy087).

Details: Equus caballus; pH 7; Thermal; CD; CAPS buffer; transition: 2; reversible: yes

Sequence of Cytochrome c wild type, P00004 (P00004 whole entry): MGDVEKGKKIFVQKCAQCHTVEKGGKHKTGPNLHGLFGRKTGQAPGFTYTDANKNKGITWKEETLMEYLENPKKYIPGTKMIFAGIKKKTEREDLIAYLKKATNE

Substance: Cytochrome c wild type, P00004
- Tm: 83.4 °C
- heat capacity change of unfolding: 1.3 kcal/mol/K
- unfolding enthalpy (calorimetric): 76.7 kcal/mol
